The source of these data is publication PMC8800040.

The target of the experiment is aflibercept (human). As to the kind of experiment: SPR. (In general: In SPR one partner is held on a chip, and binding of the other changes the refractive index at the surface.)

Turning to human VEGF-A165 (ligand), the equilibrium dissociation constant (Kd) is 0.0147 nM and the association rate constant (kon) came to 1.16e+07 M⁻¹ s⁻¹.

For orientation: Kd means the equilibrium constant for the complex coming apart. A higher Kd goes with a looser complex. One may read the kon as a measure of how fast the partners come together. Higher therefore signals faster complex formation.
